Data as given in patent publication US12630594B2, “Allergy antigen and epitope for same” (HOYU CO., LTD., priority 2017, dated 2026).

B1: Myosin-binding protein C, fast-type-like (protein)
chain: MPEAADAVKPEGEEGEAPAEAEENTAEDDEPLPEGEEGAHQSQEITGLFLQHPETTVAITGTDIVFTAKVDSTTLSRKPTIKWLKGKWLDLGSKAGKHMQFKETFDRATKIYTWDMKIIKVVPGDAGAYRCEVTSKDKCDSSAFDISVEAVQIEEEHDSLAAFKRTDAGEDEGSLDFSALLKATKKKKKPVVDEEKADVWEILKNAQPSEYEKIAFEYGITDLRGLLKRLKKMKTVEPKHSDAFLKRMESAYSVDKGKKIVLQVEVVDPNAQVKWLKNGQEIKSSAKYIIESVGNIRTLTINKCSLADDAAYECVIGEEKSFTEVFVKEPPVTITKLLDDYHVVVGERVEFEVEVSVEGAHVNWMFEDQELSRDTHKYRFKKDGLKHMLIIQEATLDDIGMYWCFTNGGRTKGELEVEEKELEVLQNIADLTVKAEDQAMFKCEVSDEKVTGKWLKDGVEVLPSSRIKLTHIGRIHRLTIDDVKPEDAGDYTFIPDGYALSLSAKLNFLEIKIDYVPRQEPPKIHLDTTGNMVSQNTIIVVAGNKLRLDVEISGEPPPTVVWAKGDTAITAVEGRVRTESRKDLSCFVIEGAEREDEGNYTIIVTNPAGEDKAHLFVKIVDVPDCPENVKCTSVGEDCATMVWDPPKFDGGAPVTGYLMERKKKGSTRWTKLNFDVYEGVTYEAKRMIEGVLYEMRVYAVNGIGMSQPSLNSKPFMPIAATSEPLGLKVHDVTDTTCTLKWLAPEKIGAGGLDGYVIEYCKEGDTEWVVANTELVERQNYTVRNLPTAEKINFRVVAVNIAGRSPPTGLSQPVTIREIVELPKIRLPRYLRQKYIRRVGDKINLTIPFQGKPRPKVQWYKDGEELDTRVASIRNSEVDSILFIRSAERSHSGKYELVLQIENMEARAILEIRIVEAPGPPEVVKVTDVWGFNAALEWKPPKDDGNCEITGYTIQKADKKTNEWFTIYEHNRRTNCTASDLIMGNEYMFRVFSENLVGKSEDFCLSKDTAIIPKIGLEYNPPPFKEKDMQSAPKFIQPLLDRSVVAGYSTTISSAVKTCPKPKIRWLRNKIPLDENPRFLMQNNQGVLTLNIRKPSQYDGGKFTCKAINSLGEDVVECTLLVRALKDKEDGDEK
modifications: myosin-binding protein C, fast-type-like
B2: Glycogen phosphorylase, muscle form-like (protein)
chain: MSKPLSDHDKRKQISVRGLAGVENVAELKVAFNRHLHFTLVKDRNVANKRDYYFALANTVRDHLVGRWIRTQQYYYEKDPKRVYYISLEFYMGRTLQNTMVNLALENACDEAIYQLGLDMEELEDMEEDAGLGNGGLGRLAACFLDSMASLGLAAYGYGIRYEFGIFNQKIVNGWQVEEADDWLRYGNPWEKARPEYMRPVKFYGRTEHTPDGVKWVDTQVVLALPYDTPIPGYRNNIVNTMRLWSAKAPCDFNLKDFNVGGYIQAVLDRNLCENISRVLYPNDNFFEGKELRLKQEYFVVAATLQDVVRRFKASKFGSREIVRTDFAELPNKVAIQLNDTHPAMAIPELMRVLVDEEKLGWDKAWDVCVRTCAYTNHTVLPEALERWPIDLFHHLLPRHLEIIYEINRRFMEYVASKFPGDNDRLRRMSLIEEGGCKKVNMAHLCIVGSHAVNGVARIHSEILIATLFKDFYELDPHKFQNKTNGITPRRWLVMCNPGLAEVIAEKIGEEFIRDLDQLKRLLKFVNDDAFIRDIAKVKQENKLKFAVHLEEHYKVKINPQSMFDFQVKRIHEYKRQLLNCLHMITYYNRIKKEPNKHWTPRTIMVGGKAAPGYHTAKMIIRLITAIGEVVNHDPVVGDRLKVIFLENYRVTLAEKAIPSADLSEQISTAGTEASGTGNMKFMLNGALTIGTMDGANVEMAEEAGEENFFIFGMRVEDVDAMDAGKGYHASEYYNRIPELKQAMDQIAGGFFSPKQPDLFKELVDLLMHHDRFKVFADYEAYIKCQDKVNQLYKNPKEWTKMVIHNIAGCGKFSSDRTIAQYAREIWGMEPSLEKIPAPDEKLK
modifications: glycogen phosphorylase, muscle form-like
B3: Desmin (fragment) (protein)
chain: ISSYRRTFGSGIGSTPGMSSMFSHGGRGSSGSAHMSSRVYEMTKSSARPSYSSGSIRSSSGGAMRSYAGMGEKLDFNLADATNRDFLDTRTNEKAELQHLNDRFASYIEKVRFLEQQNATLVVEIERLRGHEPTRVAEMYEEEMRELRRQVDGMSNDRARMEVERDNLADDLQKLKLRLQEVIHQREEAENNLSAFRADVDSATLARLDLERRIESLQEEITFLKKIHEEEIHELTSQMQETSVQVQMDMSKPDLTVALRDIRMQYEGIAAKNISEAEDWYKSKVSDLNQAVNKNNDALRQAKQESMEFRHQIQSYTCEIDSLKGTNESLLRQMREMEDRLGNEAGGYQDSVTRLEAEIAKMKDEMARHLREYQDLLNVKMALDIEIATYRKLLEGEESRITVSGSKSSHSGSHSAASLYSTVGFRETSPDVGRSAEVHSKKTVLIKTIETRDGEVVSE
modifications: Desmin (fragment)
B4: Myosin binding protein H-like (protein)
chain: MPAKPAPIKKAAPKEPAPKKEEAPAPAPAEAAPAEVAPPAEVEAPPAEAAPAEAAAPAEAAPTEEKAPAEPAPEQPKAPTPPPPDEPTSEPLEVTVDDKSDTSVTITWRPPKTIPANSGLDGYTVEITKEGTEDWKAANEDLTVSCRYVIKNQTTGDRLLIRVVAVNPGGRSPPATIADPVLVKEVGARPKVRLPRFLRQRYVKKVGEKINIVIPYSGKPKPVVSWLKDGQPLDSKRANIRTSDRDSILFIRQAERVDSGSYEMCVKVDDFEDKAAIIIQIIELPGPPASIKIVDVWGFNVALEWTVPKDNGNTEITGYTVQKADKKTGDWFNILEHYARLNATISDLIMGNTYTFRVFAENKCGLSEECAVTKGEATIVKEVIDYKPTPFVEHDFTEAPKFTTVLNDRSTTVGYSTKLLCSVRGCPKPKIMWMKNKMILNNMDNPKYRMISTGGICTLEIRKPGPYDGGEYVCRAENTLGKVDTGCKLEVRKPGQADADKDKKEQ
modifications: Myosin binding protein H-like
B5: Alpha-actinin-3 (protein)
chain: MTAIETQVQYGSYMTSEQVYMTQEDDWDRDLLLDPAWEKQQRKTFTAWCNSHLRKAGTQIENIEEDFRNGLKLMLLLEVISGERLPKPDKGKMRFHKIANVNKALDFICSKGVKLVSIGAEEIVDGNVKMTLGMIWTIILRFAIQDISVEETSAKEGLLLWCQRKTAPYRNVNVQNFHISWKDGLALCALIHRHRPDLIDYSKLRKDDPMGNLNTAFEVAEKYLDIPKMLDAEDIVNTPKPDEKAIMTYVSCFYHAFAGAEQAETAANRICKVLAVNQENEKLMEEYEKLASELLEWIRRTIPWLENRVAEQTMRAMQQKLEDFRDYRRVHKPPKVQEKCQLEINFNTLQTKLRLSNRPAFMPSEGKMVSDIANAWKGLEQVEKGYEEWLLTEIRRLERLDHLAEKFKQKSSLHESWTSGKVELLSMKDYESASLMEIRALMRKHEAFESDLAAHQDRVEQIAAIAQELNELDYHDAVTINARCQGICDQWDNLGTLTQKRRDSLERVEKLWETIDQLYLEFAKRAAPFNNWMDGAMEDLQDMFIVHSIEEIQSLITAHDQFKATLPEADKERVATMGIQNEIVKIAQTYGIKLSGVNPYTNLSPQDITDKWDAVKHLVPLRDQMLQEEVARQQSNERLRRQFAAQANIIGPWIQTKMEEISHVSVDIAGSLEEQMSNLKQYEQNIINYKCNIDKLEGDHQLSQESLIFDNKHTNYTMEHVRVGWEQLLTTIARTINEVENQILTRDAKGISQEQLNEFRASFNHFDRKRNGMMDPDDFRACLISMGYDLGEVEFARIMTLVDSNNTGVVTFQAFIDFMTRETAETDTADQVMASFKILASDKTYITVEELRRELPPEQADYCISRMTSYIGSGAPPGALDYISFSSALYGESDL
modifications: PREDICTED: alpha-actinin-3

Test system: IgE antibody in the serum of a fish-allergic patient
Assay: Immunoblotting of two-dimensional electrophoresis patterns of fish meat proteins with patient serum
Assay type: binding, human
Details: proteins contained in salmon meat; serum from fish-allergic patient 2 (FIG. 1B left)
Method: Proteins contained in fish were analyzed by the aforementioned technique to identify antigens of an allergy to fish. To be specific, proteins were extracted from fish meat and subjected to two-dimensional electrophoresis under the conditions described below.
The electrophoresis in the first dimension was isoelectric focusing, which was performed using isoelectric focusing gels with a gel-strip length of 5 to 10 cm and a gel pH range of 3 to 10. The pH gradient of the gels in the direction of electrophoresis was as follows: with the total gel-strip length being taken as 1, the gel-strip length up to pH 5 was “a=0.15 to 0.3”, the gel-strip length from pH 5 to 7 was “b=0.4 to 0.7”, and the gel-strip length above pH 7 was “c=0.15 to 0.3”. More specifically, the isoelectric focusing was performed using the IPG gels, Immobiline Drystrip (pH3-10NL), produced by GE Healthcare Bio-Sciences Corporation (hereinafter abbreviated as “GE”). The electrophoresis system used was IPGphor produced by GE. The maximum current of the electrophoresis system was limited to 75 μA per gel strip. The voltage program adopted to perform the first-dimensional isoelectric focusing was as follows: (1) a constant voltage step was performed at a constant voltage of 300 V until the volt-hours reached 750 Vhr (the current variation width during electrophoresis for 30 minutes before the end of this step was 5 μA); (2) the voltage was increased gradually to 1000 V for 300 Vhr; (3) the voltage was further increased gradually to 5000 V for 4500 Vhr; and then (4) the voltage was held at a constant voltage of 5000 V until the total Vhr reached 12000.
The electrophoresis in the second dimension was SDS-PAGE, which was performed using polyacrylamide gels whose gel concentration at the distal end in the direction of electrophoresis was set to 3 to 6% and whose gel concentration at the proximal end was set to a higher value than that at the distal end. More specifically, the SDS-PAGE was performed using NuPAGE 4-12% Bris-Tris Gels (IPG well, Mini, 1 mm) produced by Life Technologies. The electrophoresis system used was XCell SureLock Mini-Cell produced by Life Technologies. The electrophoresis was run at a constant voltage of 200 V for about 45 minutes using an electrophoresis buffer composed of 50 mM MOPS, 50 mM Tris base, 0.1% (w/v) SDS and 1 mM EDTA.
Identification of antigens by immunoblotting was carried out by taking all the steps up to the step of “Second-dimensional SDS-PAGE” as described above in Example 1, followed by the steps of “Transfer to membrane”, “Immunoblotting” and “Analysis” as described below.
To be specific, proteins in the second-dimensional electrophoresis gels were transferred to a membrane (PVDF membrane) according to the following procedure. • (1) The PVDF membrane was immersed in 100% methanol followed by milliQ water, and then moved into the transfer buffer to hydrophilize the PVDF membrane. • (2) After sponge, filter paper, the second-dimensional electrophoresis gels treated by second-dimensional SDS-PAGE, the hydrophilized PVDF membrane, filter paper, and sponge were put in place in this order, the transfer system was energized at a constant voltage of 30 V for one hour. Immunoblotting
Immunoblotting of the membrane was carried out using, as a primary antibody, a serum sample from patient 1 with a fish allergy or a serum sample from a non-fish-allergic subject. This fish-allergic patient 1 was a patient diagnosed with immediate-type allergy to fish. […]

Row | Molecule | spots detected by immunoblotting, different from spots with serum of non-fish-allergic subject
1 | B1 | newly detected
2 | B2 | newly detected

Same assay, conditions: proteins contained in salmon meat; serum from fish-allergic patient 3 (FIG. 1B right)

Row | Molecule | spots detected by immunoblotting, different from spots with serum of non-fish-allergic subject
3 | B3 | detected
4 | B4 | detected

Same assay, conditions: spots in two-dimensional electrophoresis gel of proteins in fish; patients diagnosed with immediate-type allergy

Row | specific binding to IgE antibodies from fish-allergic patients | Molecule
5 | specific binding to IgE antibodies | B5
6 | specific binding to IgE antibodies | B3
7 | specific binding to IgE antibodies | B4
8 | specific binding to IgE antibodies | B1
9 | specific binding to IgE antibodies | B2
